From patent US20240287172A1 (SCIRHOM, published 2024) come the findings set out here.

The target in one assay is T1, hiR2-FL-H505A-T7 (human, UniProt Q6PJF5 1-856).
T1 sequence: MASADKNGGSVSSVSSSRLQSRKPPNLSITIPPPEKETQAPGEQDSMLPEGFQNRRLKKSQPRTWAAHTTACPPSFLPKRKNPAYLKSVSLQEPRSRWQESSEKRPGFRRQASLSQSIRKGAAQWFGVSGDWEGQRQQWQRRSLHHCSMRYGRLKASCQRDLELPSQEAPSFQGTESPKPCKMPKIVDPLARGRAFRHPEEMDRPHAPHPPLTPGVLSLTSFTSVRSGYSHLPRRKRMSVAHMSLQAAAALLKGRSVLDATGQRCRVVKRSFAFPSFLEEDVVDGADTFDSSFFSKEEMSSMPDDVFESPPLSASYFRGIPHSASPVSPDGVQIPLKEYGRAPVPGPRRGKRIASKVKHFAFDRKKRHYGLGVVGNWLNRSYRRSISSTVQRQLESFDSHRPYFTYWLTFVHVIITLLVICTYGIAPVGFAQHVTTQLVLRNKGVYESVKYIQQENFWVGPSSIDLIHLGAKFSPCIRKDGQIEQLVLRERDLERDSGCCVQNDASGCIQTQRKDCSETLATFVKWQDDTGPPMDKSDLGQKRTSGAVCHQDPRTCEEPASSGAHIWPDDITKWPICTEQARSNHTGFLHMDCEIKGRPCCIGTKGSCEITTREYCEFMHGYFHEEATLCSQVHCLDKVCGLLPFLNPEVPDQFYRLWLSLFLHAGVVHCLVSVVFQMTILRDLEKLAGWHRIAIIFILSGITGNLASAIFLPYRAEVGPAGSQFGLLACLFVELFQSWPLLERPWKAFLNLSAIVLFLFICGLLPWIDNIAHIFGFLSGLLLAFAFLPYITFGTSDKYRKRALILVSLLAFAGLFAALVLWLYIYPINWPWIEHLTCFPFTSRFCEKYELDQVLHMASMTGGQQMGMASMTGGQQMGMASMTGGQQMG
The assay can be described thus: FACS on MEF-DKO cells expressing the variant, 3 µg/ml antibody. The procedure, abridged: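 Primary stain: antibody 3 μg/ml, 1 h on ice; controls buffer alone. Secondary: PE anti-mouse IgG F(ab′)2 1:100, 1 h on ice, light-protected. Washes at 4° C; read by flow cytometry.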

Another assay has as its target T2, hiR2-FL-K536A-T7 (human, UniProt Q6PJF5 1-856).
T2 construct: on MEF-DKO cells
T2 sequence: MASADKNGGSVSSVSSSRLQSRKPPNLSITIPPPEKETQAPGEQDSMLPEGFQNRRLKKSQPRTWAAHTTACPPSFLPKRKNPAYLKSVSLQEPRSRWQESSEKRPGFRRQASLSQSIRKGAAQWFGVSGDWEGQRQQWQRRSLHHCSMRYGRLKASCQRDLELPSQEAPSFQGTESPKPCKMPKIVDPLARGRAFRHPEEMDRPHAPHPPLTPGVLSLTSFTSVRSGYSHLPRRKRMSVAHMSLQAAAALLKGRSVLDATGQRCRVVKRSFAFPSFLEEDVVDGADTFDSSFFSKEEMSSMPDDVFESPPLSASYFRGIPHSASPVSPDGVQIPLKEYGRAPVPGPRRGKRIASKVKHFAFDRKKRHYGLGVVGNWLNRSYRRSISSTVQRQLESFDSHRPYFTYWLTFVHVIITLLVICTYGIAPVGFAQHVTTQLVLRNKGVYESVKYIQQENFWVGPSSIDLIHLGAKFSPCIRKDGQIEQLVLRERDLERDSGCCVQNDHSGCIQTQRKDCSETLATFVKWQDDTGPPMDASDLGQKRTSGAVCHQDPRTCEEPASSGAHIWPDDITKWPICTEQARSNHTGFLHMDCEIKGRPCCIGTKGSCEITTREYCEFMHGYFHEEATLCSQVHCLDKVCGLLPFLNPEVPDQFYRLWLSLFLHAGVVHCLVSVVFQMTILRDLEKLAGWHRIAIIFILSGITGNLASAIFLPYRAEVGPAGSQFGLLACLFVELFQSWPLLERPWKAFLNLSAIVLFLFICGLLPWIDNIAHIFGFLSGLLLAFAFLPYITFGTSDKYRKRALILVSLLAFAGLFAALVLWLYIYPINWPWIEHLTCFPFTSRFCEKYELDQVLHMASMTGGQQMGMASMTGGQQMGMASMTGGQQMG
The assay can be described thus: FACS on MEF-DKO-hiR2-FL-K536A-T7 cells.

Some results are limits rather than exact numbers.

B1: antibody 50 (antibody, V domains shown)
VH: QVQLQQSGAELVRPGASVKVSCKASGYAFSNYLIEWVKQRPGQGLEWIGVINPGSGFTKYNEKFKGKATLTADKSSSTAYMQLSSLTSEDSAVYFCARGLYRAMDYWGQGTSVTVSS
VL: DIQMTQSPASQSASLGESVTITCLASQTIGTWLAWYQQKPGKSPQLLIYAAASLADGVPSRFSGGGSGTKFSFKISSLQAEDFVNYYCQQIYSTPYTFGGGTKLEIK
notes: mouse IgG, kappa light chain; also called clone #50; purified antibody 50
Take B1: in the assay with hiR2-FL-H505A-T7, the “loss of binding vs wild type” value is at least 30%.

B2: antibody 5 (antibody, V domains shown)
VH: QVTLKESGPGILQPSQTLSLTCSFSGFSLSTFGMGVGWIRQPSGKGLEWLAHIWWDDEKYYNSALKSRLTISKATSKNQAFLKIANVDTADTATYYCARISNYGSNYWYFNVWGTGTTVTVSS
VL: QVVLTQSPALMSASPGEKVTMTCSAGSSVSCMYWYQQKPGSSPRVLIYDTSNLASGVPARFTGSGSGTSYSLTISRMEAEDAASYYCQQWNSYPLTFGAGTKLELK
notes: mouse IgG, kappa light chain; also called clone #5; purified antibody 5
As for B2, in the assay with hiR2-FL-K536A-T7, the binding result is “no binding (tested: 3 µg/ml)”.
